This test has as its target integrin molecules on human cells (human). Description: cell-based or functional assay.

B1: RGD-Hoc, P18056 1-376 (protein)
chain: CDCRGDCFCSAMTFTVDITPKTPTGVIDETKQFTATPSGQTGGGTITYAWSVDNVPQDGAEATFSYVLKGPAGQKTIKVVATNTLSEGGPETAEATTTITVKNKTQTTTLAVTPASPAAGVIGTPVQFTAALASQPDGASATYQWYVDDSQVGGETNSTFSYTPTTSGVKRIKCVAQVTATDYDALSVTSNEVSLTVNKKTMNPQVTLTPPSINVQQDASATFTANVTGAPEEAQITYSWKKDSSPVEGSTNVYTVDTSSVGSQTIEVTATVTAADYNPVTVTKTGNVTVTAKVAPEPEGELPYVHPLPHRSSAYIWCGWWVMDEIQKMTEEGKDWKTDDPDSKYYLHRYTLQKMMKDYPEVDVQESRNGYIIHKTALETGIIYTYPKLAAALEHHHHHH
B1 yielded a luciferase activity of 5 fold.

Values taken from US20220090139A1.
